{"source": "paper PMC6218473", "about": "“Recognition of host Clr-b by the inhibitory NKR-P1B receptor provides a basis for missing-self recognition” (Nature Communications, 2018)", "molecules": {"B1": {"name": "NKR-P1B (B6 allele) C-type lectin-like domain, His-tagged (domain or fragment, mouse)", "chain": "SAKLECPQDWLSHRDKCFHVSQVSNTWKECRIDCDKKGATLLLIQDQEELRFLLDSIKEKYNSFWIGLSYTLTDMNWKWINGTAFNSDVLKITGVTENGSCAAISGEKVTSEGCSSDNRWICQKELN", "modifications": "N-acetylglucosamine on Asn169 (seen in the structure)", "notes": "NKR-P1B, B6 (C57BL/6) allele of Klrb1b, mouse, C-type lectin-like domain; Construct for structural and AUC experiments; also called ectodomain of NKR-P1B^B6"}, "B2": {"name": "m12, mouse cytomegalovirus-encoded decoy ligand (ligand)", "chain": "TNVLAAPKNTSCVKKFTVSERRPPPEPGKCMSLLGSTLVNKQAANKQVDKPVTILKIFRCPVEEYLCMNATWSGRLFVRTQDNREIIFGNISFTSTDSSPTTLTGISTLKPWPLSSDLWIHSGTGDIYMFSNASFSDPKCYITLCVLRKNAHIPVQRANFAFGVTDENLVTPTSTRTVDN"}}, "key": {"[1]": {"target": "Clr-b residues 74-194, E. coli expressed and refolded (mouse) (UniProt Q91V08)", "experiment": "crystal structure; Clr-b and NKR-P1B^B6 mixed 1:1, 5 mg/ml; 21% PEG 3350, 0.1 M Bis/Tris pH 5.9, 5% glycerol, 0.2 M ammonium sulfate, 20 °C; 2.9 Å"}, "[2]": {"target": "Clr-b residues 74-194, E. coli expressed and refolded (mouse) (UniProt Q91V08)", "experiment": "AUC; sedimentation velocity, Clr-b alone at higher concentrations (25–200 μM); 10 mM Tris-HCl pH 8.0, 0.15 M NaCl, 20 °C; monomer to dimer"}, "NKp65 (Homo sapiens)": {"target": "NKp65 (Homo sapiens) (UniProt D3W0D1)", "sequence (D3W0D1 whole entry)": "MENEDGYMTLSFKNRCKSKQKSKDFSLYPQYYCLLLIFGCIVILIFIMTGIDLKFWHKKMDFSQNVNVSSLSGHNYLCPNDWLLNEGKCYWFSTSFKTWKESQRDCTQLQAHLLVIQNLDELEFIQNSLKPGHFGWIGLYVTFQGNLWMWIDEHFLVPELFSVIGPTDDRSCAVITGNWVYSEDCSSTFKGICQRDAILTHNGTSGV", "conditions": "cited from earlier work"}, "[3]": {"target": "extended Clr-b, C-terminally extended version terminating at Ser207, His-tagged (mouse) (UniProt Q91V08)", "sequence (Q91V08 74-207)": "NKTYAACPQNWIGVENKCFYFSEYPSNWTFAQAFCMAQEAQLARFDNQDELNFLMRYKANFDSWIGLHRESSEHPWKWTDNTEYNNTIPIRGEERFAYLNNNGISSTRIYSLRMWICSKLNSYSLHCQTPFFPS", "experiment": "AUC; sedimentation velocity, 120 μM each of extended Clr-b and NKR-P1B constructs, alone and in combination; 10 mM Tris-HCl pH 8.0, 0.15 M NaCl, 20 °C"}, "[4]": {"target": "the molecule itself", "experiment": "crystal structure; Clr-b and NKR-P1B^B6 mixed 1:1, 5 mg/ml; 21% PEG 3350, 0.1 M Bis/Tris pH 5.9, 5% glycerol, 0.2 M ammonium sulfate, 20 °C; 2.9 Å"}, "[5]": {"target": "T1, NKR-P1B (B6 allele) C-type lectin-like domain with C-terminal BirA tag and His tag, biotinylated monomer (mouse, UniProt Q99JB4 89-215, biotin on the BirA tag)", "T1 chain": "B1 chain", "experiment": "SPR"}}, "data": [{"molecule": "Clr-b residues 74-194, E. coli expressed and refolded (from UniProt Q91V08 74-194) (domain or fragment)", "values": [{"measurement": "stoichiometry N", "setting": "[1]", "result": 2}, {"measurement": "stoichiometry N", "setting": "[2]", "result": 2}]}, {"molecule": "KACL (from UniProt Q6UVW9)", "values": [{"measurement": "Kd", "setting": "NKp65 (Homo sapiens)", "result": 0.0007, "unit": "µM"}]}, {"molecule": "extended NKR-P1B (B6 allele) containing the membrane proximal stalk, starting from Gln72, His-tagged (from UniProt Q99JB4 72-223) (domain or fragment)", "values": [{"measurement": "fraction of total in the species of the complex", "setting": "[3]", "result": 6, "unit": "%"}, {"measurement": "stoichiometry N (NKR-P1B per Clr-b chain)", "setting": "[3]", "result": 0.5}]}, {"molecule": "B1", "values": [{"measurement": "stoichiometry N (NKR-P1B per Clr-b chain)", "setting": "[1]", "result": 0.5}, {"measurement": "stoichiometry N", "setting": "[4]", "result": 2}]}, {"molecule": "B2", "values": [{"measurement": "Kd", "setting": "[5]", "result": 21.6, "unit": "µM"}]}]}
